# ± gives the standard deviation of the averaged measurements.
# System: ATP
# Experiment: switch fluorescence ratio, 500 uM ATP over buffer (Cy3 cluster intensity, sum of 5 cycles each) (fold (ratio)); higher = stronger signal-on switching upon ATP binding; sequences stand for … in TCGTCGGCAGCGTCAGATGTGTATAAGAGACAGTTTTTTTTTTTTTTTTTTTTTTTTT…TC
# Details: aptamer strand: ATP DNA aptamer (quencher-CACCTGGGGGAGTATTGCGGAGGAAGG + anchor), 100 nM annealed; ATP concentration: 500 uM
# Outline: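 Clusters with intensities outside 100-1000 RFU were excluded. The remaining Cy3-labelled switching-strand clusters on a modified Illumina MiSeq flow-cell had been annealed to 100 nM quencher-labelled ATP aptamer and imaged in selection buffer, then after 15 min with 500 uM ATP at 22 °C, for five cycles separated by NaOH stripping and re-annealing. The fluorescence ratio, averaged per switch-domain sequence, is each cluster's summed target-cycle Cy3 intensity over its summed buffer-cycle Cy3 intensity.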
# 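Also: ATP exposure 15 min at 22 °C before imaging.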
row,Sequence,switch fluorescence ratio
1,TTGGCCTTTT,1.09 ± 0.12
2,TTGGCGAGGA,1.003 ± 0.0024
3,TTGGCGCTTG,1.02 ± 0.025
4,TTGGCTCTGG,0.987 ± 0.02
5,TTGGCTCTTT,1.01 ± 0.02
6,TTGGCTTAG,0.999 ± 0.014
7,TTGGCTTGGG,1.01 ± 0.043
8,TTGGCTTTTT,1.01 ± 0.015
9,TTGGGAAATT,1.02 ± 0.04
10,TTGGGAACAT,1 ± 0.016
11,TTGGGAAGGC,0.972 ± 0.035
12,TTGGGAATAA,1.02 ± 0.0046
13,TTGGGAATTT,0.975 ± 0.019
14,TTGGGAGAAA,0.9804 ± 0.0092
15,TTGGGAGTTA,0.99379 ± 0.00026
16,TTGGGATGAG,1 ± 0.019
17,TTGGGATGTT,0.9904 ± 0.009
18,TTGGGATTGG,0.968 ± 0.018
19,TTGGGCAACT,1.06 ± 0.07
20,TTGGGCACTG,0.974 ± 0.013
21,TTGGGCACTT,0.997 ± 0.068
22,TTGGGCATGG,1.02 ± 0.048
23,TTGGGCATTG,1.01 ± 0.017
24,TTGGGCCCGC,1.007 ± 0.0012
25,TTGGGCCGTT,1.01 ± 0.035
26,TTGGGCCTCT,1.01 ± 0.029

row,Sequence,switch fluorescence ratio
1,TTGGGCGACG,1.036 ± 0.0032
2,TTGGGCGCGG,1 ± 0.031
3,TTGGGCTGGG,1.01 ± 0.026
4,TTGGGCTTTC,1.04 ± 0.03
5,TTGGGGAACA,1.014 ± 0.008
6,TTGGGGAACG,1.41 ± 0.62
7,TTGGGGAAGA,1.02 ± 0.029
8,TTGGGGATGC,1.33 ± 0.23
9,TTGGGGCCCA,1 ± 0.022
10,TTGGGGCCGG,1.003 ± 0.0095
11,TTGGGGGATG,0.985 ± 0.0088
12,TTGGGGGCAA,1.57 ± 0.84
13,TTGGGGGGAG,0.99 ± 0.027
14,TTGGGGGGTG,1.04 ± 0.14
15,TTGGGGTAAT,1.01 ± 0.022
16,TTGGGGTACA,0.9895 ± 0.0051
17,TTGGGGTAGC,1.01 ± 0.036
18,TTGGGGTATT,1.01 ± 0.025
19,TTGGGGTGAG,0.981 ± 0.022
20,TTGGGGTGCA,0.99 ± 0.018
21,TTGGGGTTAA,1.03 ± 0.058
22,TTGGGGTTCA,0.9752 ± 0.0084
23,TTGGGGTTTG,0.975 ± 0.038
24,TTGGGTAATA,1.05 ± 0.087
25,TTGGGTATGA,1.01 ± 0.037
26,TTGGGTCCAA,0.983 ± 0.017

row,Sequence,switch fluorescence ratio
1,TTGGGTGATC,1.01 ± 0.049
2,TTGGGTGCTA,1.09 ± 0.16
3,TTGGGTGCTG,1.01 ± 0.032
4,TTGGGTGGGA,0.986 ± 0.044
5,TTGGGTGGGG,1 ± 0.049
6,TTGGGTGTCT,0.988 ± 0.057
7,TTGGGTGTGC,1.02 ± 0.061
8,TTGGGTTCGG,0.987 ± 0.038
9,TTGGGTTCGT,0.998 ± 0.037
10,TTGGGTTCTT,0.9937 ± 0.0066
11,TTGGGTTGTG,1.01 ± 0.041
12,TTGGTAAAGT,1.03 ± 0.071
13,TTGGTAGAAT,1.01 ± 0.014
14,TTGGTATACG,0.997 ± 0.026
15,TTGGTATAGC,1.003 ± 0.01
16,TTGGTATTAT,0.986 ± 0.02
17,TTGGTCAATC,1.04 ± 0.024
18,TTGGTGCCGT,1.13 ± 0.046
19,TTGGTGCTTG,1 ± 0.041
20,TTGGTGGCTT,0.968 ± 0.03
21,TTGGTGGGGA,0.987 ± 0.042
22,TTGGTGGGGC,0.98 ± 0.02
23,TTGGTGTGTT,1.01 ± 0.013
24,TTGGTGTTGG,1.01 ± 0.044
25,TTGGTTACGT,1 ± 0.039
26,TTGGTTATAC,1.12 ± 0.046

row,Sequence,switch fluorescence ratio
1,TTGGTTCAAG,1.013 ± 0.0027
2,TTGGTTCCGT,1.01 ± 0.026
3,TTGGTTCGGA,0.993 ± 0.015
4,TTGGTTCTGG,0.962 ± 0.038
5,TTGGTTGAGG,0.974 ± 0.02
6,TTGGTTGGGT,0.997 ± 0.041
7,TTGGTTGGTG,1.03 ± 0.11
8,TTGGTTTAAG,1 ± 0.027
9,TTGGTTTGCT,1.005 ± 0.0045
10,TTGGTTTGGC,1.01 ± 0.019
11,TTGTAAAATG,0.996 ± 0.013
12,TTGTAATGAG,1.04 ± 0.065
13,TTGTAATGGG,0.988 ± 0.019
14,TTGTACGCCC,1.24 ± 0.2
15,TTGTACTTGG,1.04 ± 0.072
16,TTGTAGAGCT,0.949 ± 0.017
17,TTGTAGGGAA,1.03 ± 0.013
18,TTGTAGGGGA,1.04 ± 0.06
19,TTGTAGTTG,0.9952 ± 0.0062
20,TTGTAGTTTG,0.977 ± 0.0071
21,TTGTATATTT,0.982 ± 0.02
22,TTGTATCTTT,1.03 ± 0.011
23,TTGTATGTAG,1.02 ± 0.021
24,TTGTATTGGT,1.04 ± 0.11
25,TTGTCACAGG,1.09 ± 0.056
26,TTGTCACGGG,1.02 ± 0.05

row,Sequence,switch fluorescence ratio
1,TTGTCAGACT,0.9801 ± 0.0028
2,TTGTCATGGG,0.958 ± 0.011
3,TTGTCATTGG,0.992 ± 0.019
4,TTGTCATTTA,0.992 ± 0.031
5,TTGTCCTAGT,1.008 ± 0.0012
6,TTGTCCTCCT,1.11 ± 0.11
7,TTGTCCTGGG,1.02 ± 0.012
8,TTGTCGGGTG,1.03 ± 0.089
9,TTGTCTTTGG,1.01 ± 0.041
10,TTGTGAAGGC,1.04 ± 0.015
11,TTGTGAAGGG,0.9663 ± 0.0013
12,TTGTGAATTT,1.28 ± 0.43
13,TTGTGACATA,1 ± 0.023
14,TTGTGAGGCA,1.006 ± 0.0066
15,TTGTGCGCAG,1 ± 0.029
16,TTGTGCGGGT,1.02 ± 0.049
17,TTGTGGCGTT,0.984 ± 0.0045
18,TTGTGGGAAA,1.02 ± 0.016
19,TTGTGGGAAG,0.976 ± 0.034
20,TTGTGGGGAA,1.12 ± 0.2
21,TTGTGGGGAG,0.97 ± 0.024
22,TTGTGGGGTT,0.984 ± 0.048
23,TTGTGGGTAG,1.02 ± 0.043
24,TTGTGGTGAG,0.987 ± 0.016
25,TTGTGTGTAG,1.04 ± 0.033
26,TTGTGTGTTA,0.9687 ± 0.0052

row,Sequence,switch fluorescence ratio
1,TTGTGTTGGT,0.999 ± 0.041
2,TTGTGTTTAC,1.07 ± 0.11
3,TTGTTAATGA,0.979 ± 0.046
4,TTGTTAATTG,1.01 ± 0.041
5,TTGTTACTCG,0.976 ± 0.048
6,TTGTTAGGGT,0.958 ± 0.011
7,TTGTTAGGTT,1.06 ± 0.13
8,TTGTTCCGAT,1.02 ± 0.032
9,TTGTTCGCTT,1.03 ± 0.025
10,TTGTTCTAAC,1.0276 ± 0.00054
11,TTGTTCTGGG,0.972 ± 0.022
12,TTGTTGA,0.984 ± 0.042
13,TTGTTGCAGC,1.02 ± 0.035
14,TTGTTGCCGT,0.984 ± 0.065
15,TTGTTGCGTT,0.986 ± 0.025
16,TTGTTGGAAT,1 ± 0.019
17,TTGTTGGAGG,0.982 ± 0.025
18,TTGTTGGAGT,0.985 ± 0.018
19,TTGTTGGGAT,0.996 ± 0.028
20,TTGTTGGGG,0.994 ± 0.03
21,TTGTTGGGGA,1 ± 0.019
22,TTGTTGGTCT,1.009 ± 0.0075
23,TTGTTGGTTG,0.975 ± 0.034
